Experimental findings from publication PMC4570272 are described below.

Sequences and labels used below:
T1: Puf5p RNA-binding domain (Saccharomyces cerevisiae, UniProt P39016 201-600)
T1 sequence: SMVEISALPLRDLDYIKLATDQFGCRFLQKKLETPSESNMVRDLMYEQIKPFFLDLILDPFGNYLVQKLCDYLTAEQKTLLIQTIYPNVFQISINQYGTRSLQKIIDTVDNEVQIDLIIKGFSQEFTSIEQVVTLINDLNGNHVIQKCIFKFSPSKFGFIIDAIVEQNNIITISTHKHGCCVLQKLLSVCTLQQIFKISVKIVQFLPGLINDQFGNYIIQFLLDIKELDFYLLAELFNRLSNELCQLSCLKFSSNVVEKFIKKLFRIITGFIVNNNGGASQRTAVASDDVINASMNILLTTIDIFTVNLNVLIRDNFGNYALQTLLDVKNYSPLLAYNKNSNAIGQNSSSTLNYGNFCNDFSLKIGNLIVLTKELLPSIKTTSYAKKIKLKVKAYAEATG

The Kd is the equilibrium constant for the complex coming apart. Higher therefore signals a looser complex.

The target in the data set is T1, Puf5p RNA-binding domain. Put plainly: EMSA; EMSA: 10 mM HEPES pH 7.4, 50 mM NaCl, 1 mM EDTA, 0.1 mg/ml BSA, 0.01% Tween 20, 0.1 mg/ml yeast tRNA, 100 pM RNA, overnight at 4 C. (In general: In EMSA bound probe runs differently from free probe, usually more slowly.)
The molecule UGUAUAUA (ssRNA) [NRE (8)] gave a Kd of 3200 nM.

Regarding UGUAAUGAUUA (ssRNA) [AAT2 (11)], the affinity, expressed as Kd, was 345 nM.

In turn, UGUACUAUA (ssRNA) [SMX2 (9)] gave a Kd of 28.4 nM. For UGUAUUUGUA (ssRNA) [MFA2 (10)] the value was 179 nM.

The molecule UGUAACUUUUUA (ssRNA) [AMN1 (12)] had a Kd of 106 nM.
